Key:
[1] = target: T1, mutated human CRTH2 with amino acid substitution (Homo sapiens, UniProt Q9Y5Y4, E15A/L14A/P12A); test: Epitope analysis using CHO-S cells which express mutated human CRTH2 with amino acid substitution; format: binding; settings: mutant P12A, L14A, and E15A; antibody 10 μg/mL; relative to wild-type = 100%
T1 construct: inserting genes encoding various mutants with amino acid substitution obtained by deleting termination codons; expressed in transfected cells; host or cells: CHO-S cells (Lifetechnologies), transient (phmAG1-MNLinker vector)
T1 sequence (Q9Y5Y4 1-395 P12A/L14A/E15A): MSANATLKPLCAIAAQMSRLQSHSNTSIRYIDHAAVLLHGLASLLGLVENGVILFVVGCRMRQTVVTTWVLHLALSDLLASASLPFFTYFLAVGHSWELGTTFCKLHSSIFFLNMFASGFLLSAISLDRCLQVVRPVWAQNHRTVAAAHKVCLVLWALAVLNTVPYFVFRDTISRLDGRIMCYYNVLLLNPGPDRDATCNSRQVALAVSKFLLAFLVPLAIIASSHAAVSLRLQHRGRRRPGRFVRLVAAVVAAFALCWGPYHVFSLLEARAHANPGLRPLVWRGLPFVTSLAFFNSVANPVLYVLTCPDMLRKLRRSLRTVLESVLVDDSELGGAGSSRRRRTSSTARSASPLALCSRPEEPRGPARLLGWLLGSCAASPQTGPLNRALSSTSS
Method in brief: (§1)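 CHO-S cells transiently expressing alanine-substituted human CRTH2 extracellular mutants, C-terminally Azami-Green tagged, 24 h post-transfection. Antibodies at 10 μg/mL, 4 °C 1 h, then Alexa647 anti-IgG secondary 4 °C 1 h; flow cytometry on Azami-Green-positive cells. Reactivity = Alexa647 intensity divided by Azami-Green intensity.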

[2] = target: T2, mutated human CRTH2 with amino acid substitution (Homo sapiens, UniProt Q9Y5Y4, L187A/L188A/L189A); test: as above; format: binding; settings: mutant L187A, L188A, and L189A; antibody 10 μg/mL; relative to wild-type = 100%
T2 construct: inserting genes encoding various mutants with amino acid substitution obtained by deleting termination codons; expressed in transfected cells; host or cells: CHO-S cells (Lifetechnologies), transient (phmAG1-MNLinker vector)
T2 sequence (Q9Y5Y4 1-395 L187A/L188A/L189A): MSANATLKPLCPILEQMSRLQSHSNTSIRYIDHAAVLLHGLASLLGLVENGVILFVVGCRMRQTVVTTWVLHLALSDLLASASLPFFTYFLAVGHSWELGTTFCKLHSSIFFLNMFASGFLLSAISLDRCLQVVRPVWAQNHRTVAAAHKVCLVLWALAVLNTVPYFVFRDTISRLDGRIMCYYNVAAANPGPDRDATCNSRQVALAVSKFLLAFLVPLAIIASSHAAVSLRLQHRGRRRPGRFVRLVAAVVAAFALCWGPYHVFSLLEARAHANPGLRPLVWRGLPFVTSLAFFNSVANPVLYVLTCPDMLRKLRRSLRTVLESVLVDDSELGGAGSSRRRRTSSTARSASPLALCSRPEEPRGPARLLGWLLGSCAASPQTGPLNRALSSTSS
Method in brief: as §1

reactivity against cells expressing mutated human CRTH2 [1]: lost | reactivity against cells expressing mutated human CRTH2 [2]: lost
B1: LV0HV1: humanized Lym2 antibody, VL LV0 (SEQ ID NO: 33), VH HV1 (SEQ ID NO: 51) (antibody, V domains shown)
VH: EVQLVESGGGVVQPGRSLRLSCAASGFTFSNYYMAWVRQAPGKGLEWVATISYDGSSTYYRDSVKGRFTISRDNAKNSLYLQMNSLRAEDTATYYCARHRGYYYSGAGYFDYWGQGTMVTVSS
VL: DIVMTQTPLSLPVTPGESASISCRSSQSLEYSDGYTYLEWYLQKPGQSPQVLIYGVSNRFSGVPDRFSGSGSGTDFTLKISRVEAEDVGVYYCFQATHDPLTFGQGTKLEIK
